We go through three molecules from paper PMC10553838 (PLOS Pathogens, 2023).

The labels stand for the following.
B1: Pa-ExoY (20-378) K347A (enzyme)
chain: LLRPADMQARALQDLFDAQGVGVPVEHALRMQAVARQTNTVFGIRPVERIVTTLIEEGFPTKGFSVKGKSSNWGPQAGFICVDQHLSKREDRDTAEIRKLNLAVAKGMDGGAYTQTDLRISRQRLAELVRNFGLVADGVGPVRLLTAQGPSGKRYEFEARQEADGLYRISRLGRSEAVQVLASPACGLAMTADYDLFLVAPSIEAHGSGGLDARRNTAVRYTPLGAKDPLSEDGFYGREDMARGNITPRTRQLVDALNDCLGRGEHREMFHHSDDAGNPGSHMGDNFPATFYLPRAMEHRVGEESVRFDEVCVVADRKSFSLLVECIAGNGYHFTAHPDWNVPLRPGFQEALDFFQRKV
B2: Pa-ExoY (20-378) H352A (enzyme)
chain: B1 chain with A328K, H333A
B3: Pa-ExoY (20-378) 3 Mut (F367A-L371A-F374A) (enzyme)
chain: B1 chain with A328K, F348A, L352A, F355A

Numbering of substitutions follows the chain as printed. Names may count otherwise.

This experiment concerns the target F-actin (filamentous rabbit skeletal muscle α-actin) (rabbit, UniProt P68135 1-377). The experiment is described as follows: cell-based or functional assay.
For the molecule B1, the “F-actin-stimulated guanylate cyclase (cGMP synthesis) activity, 3 μM F-actin, against wild-type Pa-ExoY” value (shortened to “F-actin-stimulated guanylate cyclase”) was around 15 fold decrease.

Take B2: the “F-actin-stimulated guanylate cyclase” value was around 8 fold decrease.

As for B3, the “F-actin-stimulated guanylate cyclase” value is around 12000 fold reduction.
